Data: article PMC5943350

Experiments:
[1] = biological target: TNFRII-Trimer fusion protein (homotrimeric soluble human TNF receptor II fused to the Trimer-Tag, the C-propeptide of human α1(III) collagen) (human) (UniProt P20333); test: SEC + other: non-reducing SDS-PAGE; purified TNFRII-Trimer on 10% SDS-PAGE under non-reducing or reducing conditions (Coomassie; Western blot under non-reducing conditions too) and SEC-HPLC (Sepax Zenix-C SEC-300, OD280), TNFRII-Fc as dimeric control
[2] = biological target: human TNF-α (human) (UniProt P01375)
Chain of UniProt P01375 (P01375 77-233): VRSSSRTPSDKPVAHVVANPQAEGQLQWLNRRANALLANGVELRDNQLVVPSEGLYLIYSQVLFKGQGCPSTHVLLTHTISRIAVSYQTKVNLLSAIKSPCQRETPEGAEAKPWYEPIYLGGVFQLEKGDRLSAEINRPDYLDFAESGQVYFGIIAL

| stoichiometry N [1] | Substance | IC50 of neutralisation of TNF-α (2.5 ng/mL)-induced cytotoxicity in L929 cells, MTT assay, molar basis [2] [pM] | IC50 of neutralisation of TNF-α (2.5 ng/mL)-induced cytotoxicity in L929 cells, MTT assay, weight basis [2] [µg/mL] |
| --- | --- | --- | --- |
| 3 | TNFRII-Trimer fusion protein (homotrimeric soluble human TNF receptor II fused to the Trimer-Tag, the C-propeptide of human α1(III) collagen) (from UniProt P20333 23-256) |  |  |
|  | TNFRII-Fc (dimeric soluble human TNFRII receptor-Fc fusion) (from UniProt P20333 23-257) | 98.6 | 0.0101 |
